Measurements as given in paper PMC10450164.

Legend:
Assay in all cases: ITC
TFAP2A DBD-HSH WT = TFAP2A DBD-HSH WT (Homo sapiens, UniProt P05549 203-420)
TFAP2B DBD-HSH WT = TFAP2B DBD-HSH WT (Homo sapiens, UniProt Q92481 219-457)
TFAP2B R236C = TFAP2B R236C (Homo sapiens, UniProt Q92481 219-457, R236C)
TFAP2A G262E = TFAP2A G262E (Homo sapiens, UniProt P05549 203-420, G262E)
TFAP2B K276R = TFAP2B K276R (Homo sapiens, UniProt Q92481 219-457, K276R)
TFAP2B L284S = TFAP2B L284S (Homo sapiens, UniProt Q92481 219-457, L284S)
Chain of TFAP2B L284S (Q92481 219-457 L284S): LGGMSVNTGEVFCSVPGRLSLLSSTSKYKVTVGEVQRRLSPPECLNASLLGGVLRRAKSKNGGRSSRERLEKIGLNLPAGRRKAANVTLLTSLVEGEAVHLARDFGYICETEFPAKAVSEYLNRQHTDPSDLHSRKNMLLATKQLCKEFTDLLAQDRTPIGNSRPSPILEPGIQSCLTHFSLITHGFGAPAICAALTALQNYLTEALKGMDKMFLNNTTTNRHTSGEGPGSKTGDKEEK

TFAP2B R300C = TFAP2B R300C (Homo sapiens, UniProt Q92481 219-457, R300C)
Chain of TFAP2B R300C (Q92481 219-457 R300C): as the sequence (Q92481 219-457 L284S) above, with S66L, R82C counted along it

TFAP2B R285Q = TFAP2B R285Q (Homo sapiens, UniProt Q92481 219-457, R285Q)
Chain of TFAP2B R285Q (Q92481 219-457 R285Q): as the sequence (Q92481 219-457 L284S) above, with S66L, R67Q counted along it

TFAP2A R217S = TFAP2A R217S (Homo sapiens, UniProt P05549 203-420, R217S)
Chain of TFAP2A R217S (P05549 203-420 R217S): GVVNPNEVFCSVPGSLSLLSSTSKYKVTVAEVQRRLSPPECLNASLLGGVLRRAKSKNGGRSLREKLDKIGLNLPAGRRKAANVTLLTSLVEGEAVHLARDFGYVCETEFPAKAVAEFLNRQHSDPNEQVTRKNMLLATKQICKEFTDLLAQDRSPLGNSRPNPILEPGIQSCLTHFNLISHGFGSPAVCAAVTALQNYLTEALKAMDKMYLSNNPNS

TFAP2B V336I = TFAP2B V336I (Homo sapiens, UniProt Q92481 219-457, V336I)
Chain of TFAP2B V336I (Q92481 219-457 V336I): as the sequence (Q92481 219-457 L284S) above, with S66L, V118I counted along it

Chain of TFAP2B DBD-HSH WT (Q92481 219-457): as the sequence (Q92481 219-457 L284S) above, with S66L counted along it
Chain of TFAP2A DBD-HSH WT (P05549 203-420): as the sequence (P05549 203-420 R217S) above, with S15R counted along it
Chain of TFAP2B K276R (Q92481 219-457 K276R): as the sequence (Q92481 219-457 L284S) above, with K58R, S66L counted along it
Chain of TFAP2A G262E (P05549 203-420 G262E): as the sequence (P05549 203-420 R217S) above, with S15R, G60E counted along it
Chain of TFAP2B R236C (Q92481 219-457 R236C): as the sequence (Q92481 219-457 L284S) above, with R18C, S66L counted along it

B1: cCC/GGC (dsDNA)
DNA 1: GTCCCCGAGGCAG
DNA 2: CTGCCTCGGGGAC
Binder B1 has a Kd (TFAP2A DBD-HSH WT) of 78 ± 16 nM and a Kd (TFAP2B DBD-HSH WT) of 55 ± 7 nM.

B2: N4 (4 bp spacer) (dsDNA)
DNA 1: GTGCCCGATGGCAG
DNA 2: CTGCCATCGGGCAC
B2 was tested, and the Kd (TFAP2A DBD-HSH WT) was 341 ± 20 nM and the Kd (TFAP2B DBD-HSH WT) was 340 ± 17 nM.

B3: cCC/GGg (dsDNA)
DNA 1: GTCCCCGAGGGAG
DNA 2: CTCCCTCGGGGAC
B3 showed a Kd (TFAP2A DBD-HSH WT) of 336 ± 53 nM and a Kd (TFAP2B DBD-HSH WT) of 355 ± 57 nM.

B4: tCC/GGC (dsDNA)
DNA 1: GTTCCCGAGGCAG
DNA 2: CTGCCTCGGGAAC
B4 gave a Kd (TFAP2A DBD-HSH WT) of 565 ± 87 nM and a Kd (TFAP2B DBD-HSH WT) of 248 ± 49 nM.

B5: aCC/GGC (dsDNA)
DNA 1: GTACCCGAGGCAG
DNA 2: CTGCCTCGGGTAC
B5 showed a Kd (TFAP2A DBD-HSH WT) of 373 ± 46 nM and a Kd (TFAP2B DBD-HSH WT) of 313 ± 69 nM.

B6: CGA (GCC(N3)GGC) (dsDNA)
DNA 1: GTGCCCGAGGCAG
DNA 2: CTGCCTCGGGCAC
In the case of B6, the binding result (TFAP2B R236C) is reported as “no binding”, the Kd (TFAP2A G262E) is reported as 129 ± 22 nM and the Kd (TFAP2B K276R) is reported as 382 ± 36 nM. The binding result (TFAP2B L284S) was “no binding”, the Kd (TFAP2B R300C) was 88 ± 20 nM and the Kd (TFAP2A DBD-HSH WT) was 19 ± 1 nM. For the same binder, the Kd (TFAP2B R285Q) was 178 ± 43 nM, the Kd (TFAP2B DBD-HSH WT) was 18 ± 2 nM and the binding result (TFAP2A R217S) was “no binding”. It also gave a Kd (TFAP2B V336I) of 44 ± 9 nM.

B7: GmCC/GGC (dsDNA)
DNA 1: GTGCCCGAGGCAG
DNA 2: CTGCCTCGGGCAC
modifications: methylcytosine at position 4 of strand 1; second strand methylation not stated
Binder B7 has a Kd (TFAP2A DBD-HSH WT) of 347 ± 3 nM and a Kd (TFAP2B DBD-HSH WT) of 299 ± 22 nM.

B8: GCt/GGC (dsDNA)
DNA 1: GTGCTCGAGGCAG
DNA 2: CTGCCTCGAGCAC
B8 was tested, and the Kd (TFAP2A DBD-HSH WT) was 694 ± 71 nM and the Kd (TFAP2B DBD-HSH WT) was 461 ± 71 nM.

B9: TGA (dsDNA)
DNA 1: GTGCCTGAGGCAG
DNA 2: CTGCCTCAGGCAC
B9 was tested, and the Kd (TFAP2A DBD-HSH WT) was 17 ± 1 nM and the Kd (TFAP2B DBD-HSH WT) was 19 ± 2 nM.

B10: GCmC/GGC (dsDNA)
DNA 1: GTGCCCGAGGCAG
DNA 2: CTGCCTCGGGCAC
modifications: methylcytosine at position 5 of strand 1; second strand methylation not stated
Binder B10 has a Kd (TFAP2A DBD-HSH WT) of 107 ± 3 nM and a Kd (TFAP2B DBD-HSH WT) of 126 ± 12 nM.
